According to publication PMC11197489, “RNA 5-methylcytosine regulates YBX2-dependent liquid-liquid phase separation”:

Columns and labels:
Settings in all cases: protein: recombinant; tags: His6-SUMO removed by Ulp1
[1] = target: hYBX2 CSD 85-177 (crystal) (human, UniProt Q9Y2T7 85-177, I92T;Q93K); test: crystal structure; ITC: 25 C, iTC200, buffer not stated (protein stock 10 mM Tris-HCl pH 8.0, 100 mM NaCl, 1 mM DTT); EMSA: 50 mM Tris-HCl pH 7.5, 100 mM NaCl, 0.4 mM EDTA, 0.1% NP-40, 1 mM DTT, 50% glycerol, BSA, on ice, 0.2% glutaraldehyde; pull-down: 100 mM NaCl, 10 mM Tris-HCl pH 7.6, 2 mM EDTA, 0.5% NP-40, 4 C
Chain of hYBX2 CSD 85-177 (crystal) (Q9Y2T7 85-177 I92T/Q93K): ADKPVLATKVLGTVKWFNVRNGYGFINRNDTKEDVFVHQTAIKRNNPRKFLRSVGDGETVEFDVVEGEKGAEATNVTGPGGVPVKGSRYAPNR

[2] = target: hYBX2 CSD I92T/Q93K (called wild-type in ITC) (human, UniProt Q9Y2T7 85-177, I92T;Q93K); test: ITC; ITC: 25 C, iTC200, buffer not stated (protein stock 10 mM Tris-HCl pH 8.0, 100 mM NaCl, 1 mM DTT); EMSA: 50 mM Tris-HCl pH 7.5, 100 mM NaCl, 0.4 mM EDTA, 0.1% NP-40, 1 mM DTT, 50% glycerol, BSA, on ice, 0.2% glutaraldehyde; pull-down: 100 mM NaCl, 10 mM Tris-HCl pH 7.6, 2 mM EDTA, 0.5% NP-40, 4 C
Chain of hYBX2 CSD I92T/Q93K (called wild-type in ITC) (Q9Y2T7 85-177 I92T/Q93K): as above

hYBX2 CSD W100F (ITC) = hYBX2 CSD W100F (ITC) (human, UniProt Q9Y2T7 85-177, I92T;Q93K;W100F); test: as above
Chain of hYBX2 CSD W100F (ITC) (Q9Y2T7 85-177 I92T/Q93K/W100F): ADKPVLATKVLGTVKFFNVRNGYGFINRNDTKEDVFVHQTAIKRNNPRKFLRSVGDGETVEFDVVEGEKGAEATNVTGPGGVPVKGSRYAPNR

[3] = target: hYBX2 CSD W100F/Y173F (ITC) (human, UniProt Q9Y2T7 85-177, I92T;Q93K;W100F;Y173F); test: as above
Chain of hYBX2 CSD W100F/Y173F (ITC) (Q9Y2T7 85-177 I92T/Q93K/W100F/Y173F): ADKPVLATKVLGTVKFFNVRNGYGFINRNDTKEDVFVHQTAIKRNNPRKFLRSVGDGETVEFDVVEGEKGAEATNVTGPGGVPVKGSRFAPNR

[4] = target: hYBX2 CSD 85-165 (crystal) (human, UniProt Q9Y2T7 85-165, I92T;Q93K); test: crystal structure; ITC: 25 C, iTC200, buffer not stated (protein stock 10 mM Tris-HCl pH 8.0, 100 mM NaCl, 1 mM DTT); EMSA: 50 mM Tris-HCl pH 7.5, 100 mM NaCl, 0.4 mM EDTA, 0.1% NP-40, 1 mM DTT, 50% glycerol, BSA, on ice, 0.2% glutaraldehyde; pull-down: 100 mM NaCl, 10 mM Tris-HCl pH 7.6, 2 mM EDTA, 0.5% NP-40, 4 C
Chain of hYBX2 CSD 85-165 (crystal) (Q9Y2T7 85-165 I92T/Q93K): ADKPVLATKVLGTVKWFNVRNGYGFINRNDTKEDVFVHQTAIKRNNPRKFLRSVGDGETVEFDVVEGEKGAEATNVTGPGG

GUCUC (ssRNA, m5C at positions 3 and 5) [GU(m5C)U(m5C)]
binding result [1]: binds

UCAUCUU (ssRNA, m5C at position 5) [UCAU(m5C)UU]
binding result [1]: binds

UCAUCUCU (ssRNA, m5C at position 5) [ITC m5C RNA UCAU(m5C)UCU]
Kd [2]: 220 ± 20 nM | Kd (hYBX2 CSD W100F (ITC)): 2340 ± 90 nM | Kd [3]: 6330 ± 520 nM

UCAUCU (ssRNA, m5C at position 5) [UCAU(m5C)U]
binding result [4]: binds | binding result [1]: binds

UCAUCUCU (ssRNA) [ITC unme-C RNA]
Kd [2]: 710 ± 60 nM | Kd (hYBX2 CSD W100F (ITC)): 2590 ± 120 nM | Kd [3]: 7260 ± 240 nM
